In patent publication US20220242939A1 (BIOARCTIC, published 2022):
Non-standard residues stand in square brackets, D forms with d. No end group written: not given here. Ahx = NCCCCCC(=O)O

T1: L198 N-terminal neo-epitope peptide LAGQPLQE-Acp-C (SEQ ID NO:54) conjugated to BSA (human, not fully specified (residue 10); printed as LAGQPLQE-Acp-C; also: C-terminal Cys conjugated to BSA carrier)
T1 construct: BSA carrier
T1 peptide: LAGQPLQE[Ahx]C

T2: L198 N-terminal neo-epitope peptide LAGQPL-Acp-C (SEQ ID NO:52) conjugated to BSA (human, not fully specified (residue 8); printed as LAGQPL-Acp-C; also: C-terminal Cys conjugated to BSA carrier)
T2 construct: BSA carrier; also called L198-BSA peptide
T2 peptide: LAGQPL[Ahx]C

B1: A199 N-terminal neo-epitope peptide AGQPLQ-Acp-C (SEQ ID NO:51) conjugated to BSA (peptide)
peptide: AGQPLQ[Ahx]C
modifications: not fully specified (residue 8); printed as AGQPLQ-Acp-C; also: C-terminal Cys conjugated to BSA carrier
notes: BSA carrier; also called A199-BSA peptide
B2: 8B3, monoclonal anti-L198 antibody (antibody, IgG2b, V domains shown)
VH: EVKVEESGGGVVQPGGSMKLSCLASGFTFRNYWMNWVRQSPEKGLEWVAQIRLKSDNYATRYAESVKGRFTISRDDSKSSVYLQMNNLRAEDTGTYYCSGHILLRYYALDFWGQGTSVTVSS
VL: DIVLTQSQKFMSTSVGDRVSVTCKASQNVYTDVAWYQQKPGQSPKGMIYSASYRYSGVPDRFTGSGSGTDFTLKISNVQSEDLAEYFCQQYNSFPYTFGGGTKLEIK

Experiments:
[1] = target: 67G3, monoclonal anti-A199 antibody; test: inhibition ELISA: antigen in solution varied, antibody 67G3 at 0.05 µg/ml, plate coated with A199-BSA peptide
Method: (§1) 0.5 μg/ml solution of N-terminal neo-epitope peptide A199 (SEQ ID NO:51) conjugated to BSA was prepared by dilution in PBS. 50 μl/well were added to an ELISA half-area 96 well microtiter plate, the plate was sealed with adhesive sealer and incubated over night at 4° C. After discarding the solution, the plates were blocked with protein-free blocking solution (Pierce) (150 μl/well) at room temperature for 90 min with shaking (900 rpm). The blocked plate was washed four times with washing buffer containing 0.28 mM NaH₂PO₄, 2.5 mM Na₂HPO₄, 150 mM NaCl, 0.1% TWEEN®-20 and 0.0075% Kathon CG.
(§2) Serial dilutions of each synthetic ApoE peptide were prepared by 4-fold dilution starting from 10000 ng/ml in 96 well storage plates (30 μl final volume). Each purified monoclonal antibody to be tested was added (30 μl) to the serial dilutions of each of the synthetic ApoE peptides at a final concentration of 0.05 μg/ml per well. […]
(§3) The pre-incubated samples were transferred (50 μl/well) to the blocked ELISA plates, and plates were incubated for 10 min at room temperature without shaking. […] Alkaline phosphatase substrate (50 μl/well) was added to the plate and the optical density was read every 10 min at a wavelength of 405 nm for up to 120 min. The IC50 values were determined from a log inhibitor concentration response curve (FIG. 29).

[2] = target: 38G9, monoclonal anti-A199 antibody; test: inhibition ELISA: antigen in solution varied, antibody 38G9 at 0.05 µg/ml, plate coated with A199-BSA peptide
Method: as §1, §2, §3

[3] = target: 63F6, monoclonal anti-A199 antibody; test: inhibition ELISA: antigen in solution varied, antibody 63F6 at 0.05 µg/ml, plate coated with A199-BSA peptide
Method: as §1, §2, §3

[4] = target: 17G4, recombinant IgG2c antibody; test: inhibition ELISA, second protocol; antibody at 0.05 ug/ml pre-incubated with the peptide in solution (4-fold dilutions from 10000 ng/ml), then on a plate coated with G200-BSA peptide; blank reduced OD 405 nm
Method: (§4) 3-fold serial dilutions of each synthetic ApoE peptide, recombinant C-terminal ApoE fragment G200-HIS and full-length ApoE4 were prepared by 4-fold dilution starting from 1000 ng/ml in 96 well storage plates (30 μl final volume). Each recombinant antibody to be tested was added (30 μl) to the serial dilutions of each of the synthetic ApoE peptides, G200-HIS or full-length ApoE4 at a final concentration of 0.05 μg/ml per well. Samples were pre-incubated for 45 min at room temperature with shaking (900 rpm).
(§5) The pre-incubated samples were transferred (50 μl/well) to the blocked ELISA plates, and plates were incubated for 25 min at room temperature without shaking. Plates were washed as described above. Alkaline phosphatase conjugated anti-mouse IgG detection antibody (Mabtech, cat. no. 3310-4) was diluted 1:1000 and added to each plate (50 μl/well). The plate was sealed and incubated with shaking (900 rpm) for 45 min at room temperature and subsequently washed as described above. Alkaline phosphatase substrate (50 μl/well) was added to the plate and the optical density was read every 15 min at a wavelength of 405 nm for up to 120 min. The IC50 values were determined from a log inhibitor concentration response curve (FIG. 17).
(§6) In addition, a second inhibition ELISA with the ApoE peptides conjugated to BSA was run, in which the starting concentration of the antigens in solution was increased 10-fold. i.e. the starting concentration of the N-terminal neo-epitope of synthetic ApoE peptides conjugated to BSA and starting at amino acid L198 (SEQ ID NO:52), A199 (SEQ ID NO:51) or G200 (SEQ ID NO:50), or to BSA-conjugated negative control peptide (SEQ ID NO:53), was 10000 ng/ml. Furthermore, a 4-fold serial dilution of antigen was used, the plates were blocked with protein-free blocking solution (Pierce) for 90 min, the pre-incubated samples were incubated on the coated plates for 10 min (instead of 25 min), and the optical density was read every 10 min (instead of every 15 min). IC50 values were determined from a log inhibitor concentration response curve (FIG. 20).

[5] = target: 7C7, recombinant IgG2c antibody; test: as above
Method: as §4, §5, §6

[6] = target: 23D5, recombinant IgG2c antibody; test: as above
Method: as §4, §5, §6

[7] = target: T3, 7B10, recombinant IgG2c antibody; test: as above
T3 construct: also called 7610
Method: as §4, §5, §6

[8] = target: 6F4, monoclonal anti-L198 antibody; test: inhibition ELISA; antibody at 0.05 ug/ml pre-incubated with the peptide in solution (4-fold dilutions from 10000 ng/ml), then on a plate coated with L198-BSA peptide; blank reduced OD 405 nm
Method: as §1, with “L198” for “A199”, “NO:52)” for “NO:51)”
as §4, with “Serial” for “3-fold serial”, “peptide” for “peptide, recombinant C-terminal ApoE fragment G200-HIS and full-length ApoE4”, “10000” for “1000”, “peptides” for “peptides, G200-HIS or full-length ApoE4”
as §5, with “10” for “25”, “10” for “15”, “25).” for “17).”

[9] = target: 36A12, monoclonal anti-A199 antibody; test: inhibition ELISA: antigen in solution varied, antibody 36A12 at 0.05 µg/ml, plate coated with A199-BSA peptide
Method: as §1, §2, §3

[10] = target: T1, L198 N-terminal neo-epitope peptide …; test: direct ELISA after limiting dilution
[11] = target: T4, recombinant C-terminal ApoE fragment L198-HIS (ApoE-L198-H299-10xHIS) (human, UniProt P02649 216-317); test: SPR (Biacore 8K), L198-HIS amine-coupled on CM5, antibody as analyte, bivalent analyte fit (ka1)
T4 construct: also called L198-HIS fragment

[12] = target: T4, recombinant C-terminal ApoE fragment …; test: SPR (Biacore 8K), L198-HIS amine-coupled on CM5, antibody as analyte, bivalent analyte fit (KD1)
Method: (§7) Selectivity evaluation and KD determination of purified monoclonal antibodies by surface plasmon resonance: Binding interactions between the antigens and antibodies were evaluated by surface plasmon resonance (SPR) using a Biacore 8K instrument (GE Healthcare) according to standard procedures.
(§8) Selectivity evaluation and KD determination of purified monoclonal antibodies by surface plasmon resonance: The five purified monoclonal antibodies 6F4, 8B3, 12B1, 15F8 and 15H11 were evaluated for selectivity, and KD values for the target antigen were determined by surface plasmon resonance.

[13] = target: T4, recombinant C-terminal ApoE fragment …; test: direct ELISA, L198-HIS coated at 0.1 µM
Method: (§9) Selectivity evaluation of purified monoclonal antibodies by direct ELISA: The direct ELISA described below was used to evaluate the binding selectivity of the purified monoclonal antibodies produced in Example 14.
(§10) The screening was performed according to standard ELISA protocols. Briefly, 1 μg/ml solutions of BSA-conjugated neo-epitope peptides and negative control peptide, and 0.1 μM recombinant C-terminal ApoE fragment and full-length ApoE (Abcam, cat. no. ab50243) were prepared by dilution in PBS. 50 μl/well were added to an ELISA half-area 96 well microtiter plate, and the plate was sealed with adhesive sealer and incubated over night at 4° C. After discarding the solution, the plates were blocked with 150 μl/well of protein-free blocking solution (Pierce) for 1 h at room temperature with shake (600-900 rpm). The plates were washed four times with washing buffer containing 0.28 mM NaH₂PO₄, 2.5 mM Na₂HPO₄, 150 mM NaCl, 0.1% TWEEN®-20 and 0.0075% Kathon CG. Purified monoclonal antibodies of interest were 3-fold serially diluted with a starting dilution at 3 μg/ml (mixed 1:2 with dilution buffer (PBS with 0.1% BSA and 0.05% TWEEN®-20)). An anti-ApoE C-terminal antibody was used as a reference antibody (ApoE E-8 mouse monoclonal, Santa Cruz Biotechnology, cat. no. sc-393302). 50 μl/well were added into the ELISA plates and incubated for 2 h at room temperature with shake (600-900 rpm). The plates were washed four times as described previously. […] After another wash (as described previously), 50 μl/well of K-Blue® aqueous substrate (Neogen) were added, and the reaction was stopped after 5-15 min with 50 μl/well of 0.5 M […]. The optical density at 450 nm was read using an ELISA reader (Tecan).

[14] = target: T2, L198 N-terminal neo-epitope peptide …; test: direct ELISA, L198-BSA peptide coated at 1 µg/ml
Method: as §9, §10

[15] = target: T4, recombinant C-terminal ApoE fragment …; test: SPR (Biacore 8K), L198-HIS amine-coupled on CM5, antibody as analyte, bivalent analyte fit (kd1)
Method: as §7, §8

[16] = target: T5, full-length ApoE in human brain extract from Alzheimer's disease patients (human, UniProt P02649 19-317); test: Western blot of AD brain RIPA 2% SDS extract; monoclonal antibody at 2 ug/ml as primary antibody
T5 construct: mature; Endogenous protein on Western blot or in solution (IP); also called ApoE full-length protein
T5 sequence (P02649 19-317): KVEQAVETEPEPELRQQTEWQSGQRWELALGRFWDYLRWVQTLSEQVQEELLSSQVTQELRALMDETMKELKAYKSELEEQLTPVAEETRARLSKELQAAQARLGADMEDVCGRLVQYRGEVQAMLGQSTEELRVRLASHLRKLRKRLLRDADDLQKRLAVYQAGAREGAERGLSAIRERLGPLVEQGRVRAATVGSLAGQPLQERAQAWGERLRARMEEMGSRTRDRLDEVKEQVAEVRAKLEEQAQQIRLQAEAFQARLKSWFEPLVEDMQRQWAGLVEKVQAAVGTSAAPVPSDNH

T4 sequence (P02649 other isoform, or with tags, fused parts or gaps limits assumed): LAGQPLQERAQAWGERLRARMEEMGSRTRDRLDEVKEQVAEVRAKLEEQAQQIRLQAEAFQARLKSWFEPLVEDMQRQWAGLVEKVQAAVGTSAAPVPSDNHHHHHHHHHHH
T3 sequence (VH, as listed by the source, chain 1 of 2): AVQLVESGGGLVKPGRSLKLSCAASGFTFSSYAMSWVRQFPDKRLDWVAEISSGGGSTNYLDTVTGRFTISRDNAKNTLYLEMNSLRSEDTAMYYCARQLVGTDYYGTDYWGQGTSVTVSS
T3 sequence (VL, as listed by the source, chain 2 of 2): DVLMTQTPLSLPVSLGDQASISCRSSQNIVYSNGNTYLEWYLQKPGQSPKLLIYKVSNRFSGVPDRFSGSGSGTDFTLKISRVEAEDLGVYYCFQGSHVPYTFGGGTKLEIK
17G4, recombinant IgG2c antibody, sequence (VH, as listed by the source, chain 1 of 2): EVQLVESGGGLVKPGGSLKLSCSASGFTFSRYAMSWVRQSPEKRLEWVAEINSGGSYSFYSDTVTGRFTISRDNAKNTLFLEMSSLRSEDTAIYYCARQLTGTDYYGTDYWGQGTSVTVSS
17G4, recombinant IgG2c antibody, sequence (VL, as listed by the source, chain 2 of 2): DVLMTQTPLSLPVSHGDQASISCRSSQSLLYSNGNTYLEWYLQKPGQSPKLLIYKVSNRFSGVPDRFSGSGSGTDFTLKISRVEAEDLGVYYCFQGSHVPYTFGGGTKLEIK
23D5, recombinant IgG2c antibody, sequence (VH, as listed by the source, chain 1 of 2): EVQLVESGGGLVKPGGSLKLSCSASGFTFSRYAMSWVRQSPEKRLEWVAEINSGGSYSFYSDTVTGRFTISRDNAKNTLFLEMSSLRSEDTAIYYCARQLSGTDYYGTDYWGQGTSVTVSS
38G9, monoclonal anti-A199 antibody, sequence (VH, as listed by the source, chain 1 of 2): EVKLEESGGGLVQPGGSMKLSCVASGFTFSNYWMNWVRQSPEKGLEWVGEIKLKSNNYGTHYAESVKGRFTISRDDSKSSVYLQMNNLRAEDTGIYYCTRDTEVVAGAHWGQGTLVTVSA
38G9, monoclonal anti-A199 antibody, sequence (VL, as listed by the source, chain 2 of 2): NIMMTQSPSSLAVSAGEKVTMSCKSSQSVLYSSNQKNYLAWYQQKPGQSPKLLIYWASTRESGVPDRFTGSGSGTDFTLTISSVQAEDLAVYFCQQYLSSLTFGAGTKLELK
36A12, monoclonal anti-A199 antibody, sequence (VH, as listed by the source, chain 1 of 2): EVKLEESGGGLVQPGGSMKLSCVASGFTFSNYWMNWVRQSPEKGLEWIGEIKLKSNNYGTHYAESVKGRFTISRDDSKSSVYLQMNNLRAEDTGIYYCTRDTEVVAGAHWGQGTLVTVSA
36A12, monoclonal anti-A199 antibody, sequence (VL, as listed by the source, chain 2 of 2): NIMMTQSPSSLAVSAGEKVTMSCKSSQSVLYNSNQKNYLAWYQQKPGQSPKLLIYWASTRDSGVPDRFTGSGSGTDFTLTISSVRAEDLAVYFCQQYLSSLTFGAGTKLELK
67G3, monoclonal anti-A199 antibody, sequence (VH, as listed by the source, chain 1 of 2): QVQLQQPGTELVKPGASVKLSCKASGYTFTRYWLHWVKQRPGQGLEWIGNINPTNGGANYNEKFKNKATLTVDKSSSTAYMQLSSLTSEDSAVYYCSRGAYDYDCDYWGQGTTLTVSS
67G3, monoclonal anti-A199 antibody, sequence (VL, as listed by the source, chain 2 of 2): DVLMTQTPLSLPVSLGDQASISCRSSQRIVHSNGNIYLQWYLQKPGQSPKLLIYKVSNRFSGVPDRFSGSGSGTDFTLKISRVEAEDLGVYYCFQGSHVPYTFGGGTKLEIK
7C7, recombinant IgG2c antibody, sequence (VH, as listed by the source, chain 1 of 2): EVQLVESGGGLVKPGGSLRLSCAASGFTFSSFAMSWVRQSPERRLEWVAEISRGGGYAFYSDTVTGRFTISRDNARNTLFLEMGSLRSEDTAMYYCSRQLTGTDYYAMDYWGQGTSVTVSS
7C7, recombinant IgG2c antibody, sequence (VL, as listed by the source, chain 2 of 2): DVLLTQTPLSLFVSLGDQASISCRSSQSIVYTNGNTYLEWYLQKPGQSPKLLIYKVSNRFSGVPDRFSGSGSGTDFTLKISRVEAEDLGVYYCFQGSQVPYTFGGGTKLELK
63F6, monoclonal anti-A199 antibody, sequence (VH, as listed by the source, chain 1 of 2): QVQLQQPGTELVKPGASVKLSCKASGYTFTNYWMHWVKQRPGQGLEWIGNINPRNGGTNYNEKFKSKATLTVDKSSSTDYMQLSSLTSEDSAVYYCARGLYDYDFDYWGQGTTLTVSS
63F6, monoclonal anti-A199 antibody, sequence (VL, as listed by the source, chain 2 of 2): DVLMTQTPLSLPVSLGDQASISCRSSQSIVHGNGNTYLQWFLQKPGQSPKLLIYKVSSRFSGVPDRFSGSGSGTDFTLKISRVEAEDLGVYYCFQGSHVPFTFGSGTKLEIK
6F4, monoclonal anti-L198 antibody, sequence (VH, as listed by the source, chain 1 of 2): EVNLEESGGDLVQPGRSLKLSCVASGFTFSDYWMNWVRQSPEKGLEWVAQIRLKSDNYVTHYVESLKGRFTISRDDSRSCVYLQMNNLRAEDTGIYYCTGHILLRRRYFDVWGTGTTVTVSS
6F4, monoclonal anti-L198 antibody, sequence (VL, as listed by the source, chain 2 of 2): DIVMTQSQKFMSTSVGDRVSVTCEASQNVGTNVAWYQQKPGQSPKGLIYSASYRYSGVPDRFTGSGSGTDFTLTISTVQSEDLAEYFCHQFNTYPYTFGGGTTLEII

Row | Binder | IC50 [1] [ng/mL] | IC50 [2] [ng/mL] | IC50 [3] [ng/mL] | binding result [4] | binding result [5] | binding result [6] | binding result [7] | binding result [8] | IC50 [9] [ng/mL] | binding result [10] | kon [11] [M⁻¹ s⁻¹] | Kd [12] [nM] | EC50 [13] [ng/mL] | EC50 [14] [ng/mL] | koff [15] [s⁻¹] | binding result [16]
1 | B1 | 2.9 | 52.6 | 2.5 | no binding (tested: 10000 ng/ml) | no binding (tested: 10000 ng/ml) | no binding (tested: 10000 ng/ml) | no binding (tested: 10000 ng/ml) | no binding (tested: 10000 ng/ml) | 27.7 | – | – | – | – | – | – | –
2 | B2 | – | – | – | – | – | – | – | – | – | binds | 42000 | 12 | 1.3 | 8.4 | 0.000302 | no binding (tested: 2 ug/ml (text))
